The supplement of paper PMC9233669
Variants at the floor of the assay were thinned out.

What was measured:
[1] = system: biotinyl-Phe-oxazolone; test: self-aminoacylation, catalytic enhancement (BFO) (fold over background); higher = more active; k-Seq, kA / k0A0; sequences stand for … in GGGAAUGGAUCCACAUCUACGAAUUC…UUCACUGCAGACUUGACGAAGCUG
How it was run: (§1)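 The uncatalyzed rate is the low-activity peak of a bimodal Gaussian fit, and catalytic enhancement is median kA divided by it. The kA values came from pseudo-first-order fits, with 1000 bootstraps, of per-sequence fraction reacted measured by streptavidin capture, triplicate qPCR and Illumina sequencing. Mutagenized RNA pools with a 21-nt variable region (0.43 μM) were reacted with each biotinyl-aminoacyl-oxazolone at 2–1250 μM in 50 μL HEPES/NaCl/KCl/MgCl2/CaCl2 buffer with 5% acetonitrile, pH 6.9–7.0, for 90 minutes at room temperature.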

[2] = system: biotinyl-Ile-oxazolone; test: self-aminoacylation, catalytic enhancement (BIO) (fold over background); higher = more active; k-Seq, kA / k0A0; sequences stand for … in GGGAAUGGAUCCACAUCUACGAAUUC…UUCACUGCAGACUUGACGAAGCUG
How it was run: as §1

[3] = system: biotinyl-Met-oxazolone; test: self-aminoacylation, catalytic enhancement (BMO) (fold over background); higher = more active; k-Seq, kA / k0A0; sequences stand for … in GGGAAUGGAUCCACAUCUACGAAUUC…UUCACUGCAGACUUGACGAAGCUG
How it was run: as §1

[4] = system: biotinyl-Val-oxazolone; test: self-aminoacylation, catalytic enhancement (BVO) (fold over background); higher = more active; k-Seq, kA / k0A0; sequences stand for … in GGGAAUGGAUCCACAUCUACGAAUUC…UUCACUGCAGACUUGACGAAGCUG
How it was run: as §1

[5] = system: biotinyl-Leu-oxazolone; test: self-aminoacylation, catalytic enhancement (BLO) (fold over background); higher = more active; k-Seq, kA / k0A0; sequences stand for … in GGGAAUGGAUCCACAUCUACGAAUUC…UUCACUGCAGACUUGACGAAGCUG
How it was run: as §1

[6] = system: biotinyl-Trp-oxazolone; test: self-aminoacylation, catalytic enhancement (BWO) (fold over background); higher = more active; k-Seq, kA / k0A0; sequences stand for … in GGGAAUGGAUCCACAUCUACGAAUUC…UUCACUGCAGACUUGACGAAGCUG
How it was run: as §1

Row | Sequence | self-aminoacylation [1] | self-aminoacylation [2] | self-aminoacylation [3] | self-aminoacylation [4] | self-aminoacylation [5] | self-aminoacylation [6]
1 | AUUCACCUAGGCCAUCGGGCG [Fam2.2 aminoacylation ribozyme variant] | 15.5 | 2.65 | 3.01 | 3.17 | 3.11 | 5.38
2 | AUUCACCUACGCCAUCGGGUG [Fam2.2 aminoacylation ribozyme variant] | 21.9 | 2.1 | 3.6 | 2.11 | 4.34 | 3.52
3 | AAGUUUGCUAACAGUCGCCAG [Fam3.1 aminoacylation ribozyme variant] | 1.8 | 1.61 | 1.45 | 1.33 | 1.17 | 2.07
4 | AUGAUUGCUAAUAGUCGCAAG [Fam3.1 aminoacylation ribozyme variant] | 2.06 | 1.34 | 1.67 | 1.24 | 1.53 | 1.61
5 | ACGUUUCCUAAUAGUCGCAAG [Fam3.1 aminoacylation ribozyme variant] | 1.35 | 1.61 | 1.33 | 1.21 | 1.08 | 1.3
6 | UCACACUUCAUGCAAUCGGUC [Fam1B.1 aminoacylation ribozyme variant] | 0.632 | 0.85 | 0.793 | 0.887 | 0.736 | 0.656
7 | CCACAUUUCAAGCAAUCGGUU [Fam1B.1 aminoacylation ribozyme variant] | 1.25 | 1.59 | 1.62 | 1.71 | 1.56 | 1.2
8 | AAGUAUGCUAAUCGUCGCAAG [Fam3.1 aminoacylation ribozyme variant] | 2.35 | 1.81 | 1.71 | 1.56 | 1.37 | 1.76
9 | AUUCACCUAGGUAAUCGGCUG [Fam2.2 aminoacylation ribozyme variant] | 0.486 | 0.944 | 1.23 | 1.02 | 1.31 | 1.2
10 | AUAACCCUGGUCAUCGAGGGA [Fam2.1 aminoacylation ribozyme variant] | 2.14 | 1.52 | 1.45 | 1.43 | 2.12 | 0.626
11 | AUUCAACUAGGUCAGCGGGUG [Fam2.2 aminoacylation ribozyme variant] | 32.2 | 3.15 | 4.12 | 3.29 | 5.11 | 5.13
12 | AUUCAGCUAGGUCAUCGGGCG [Fam2.2 aminoacylation ribozyme variant] | 17.5 | 2.48 | 3.2 | 2.79 | 3.92 | 3.83
13 | AAAUUUGCUCAUAGUCGCAAG [Fam3.1 aminoacylation ribozyme variant] | 2.13 | 1.76 | 2.13 | 1.57 | 1.55 | 1.56
14 | AUUACCCUGGUAAUCGAGUGU [Fam2.1 aminoacylation ribozyme variant] | 19.2 | 2.17 | 5.16 | 2.22 | 5.04 | 4.99
15 | AUGCACCUAGGUCAUCGAGUG [Fam2.2 aminoacylation ribozyme variant] | 4.83 | 2.61 | 3.33 | 2.56 | 3.96 | 3.75
16 | GAGAUUGCUAAUAGUCGCAAG [Fam3.1 aminoacylation ribozyme variant] | 1.8 | 1.88 | 1.67 | 1.98 | 1.52 | 2.94
17 | CUACUUCAAACAAUAGGUCUA [Fam1A.1 aminoacylation ribozyme variant] | 0.832 | 0.755 | 0.699 | 0.776 | 0.639 | 0.756
18 | AAGUUUGCUAACAGUCGAAAG [Fam3.1 aminoacylation ribozyme variant] | 5.73 | 0.878 | 0.838 | 0.848 | 0.689 | 2
19 | AAGUAUGAUAAUAGUCGCAAG [Fam3.1 aminoacylation ribozyme variant] | 1.35 | 1.22 | 1.13 | 1.28 | 1.1 | 1.2
20 | CUACCUCAAACAAUCGCUCUG [Fam1A.1 aminoacylation ribozyme variant] | 0.589 | 0.818 | 0.85 | 1.17 | 1.27 | 1.83
21 | AUUACCCUGGUCUUCCAGUGA [Fam2.1 aminoacylation ribozyme variant] | 31.7 | 3.79 | 5.48 | 3.51 | 5.94 | 6.46
22 | AUUAGCCUGGUCACCGAGUGA [Fam2.1 aminoacylation ribozyme variant] | 58.3 | 4.14 | 8.98 | 4.65 | 11.5 | 11.4
23 | CCACACUUCAACCAAUCAGUC [Fam1B.1 aminoacylation ribozyme variant] | 28.8 | 0.978 | 0.804 | 1.04 | 1.04 | 9.75
24 | AUUCCCCUAGGUCAUCAGGUG [Fam2.2 aminoacylation ribozyme variant] | 29.4 | 6.44 | 8.46 | 6.96 | 8.19 | 7.46
25 | AGGUUUGCUAGUAGUCGCAAG [Fam3.1 aminoacylation ribozyme variant] | 1.49 | 0.918 | 0.787 | 0.894 | 0.945 | 0.88
26 | GUUACCCUCGUCAUCGAGUGA [Fam2.1 aminoacylation ribozyme variant] | 11 | 2.45 | 4.14 | 2.31 | 3.7 | 4.33

Row | Sequence | self-aminoacylation [1] | self-aminoacylation [2] | self-aminoacylation [3] | self-aminoacylation [4] | self-aminoacylation [5] | self-aminoacylation [6]
27 | CUACUUCGAACAACCGGUCUG [Fam1A.1 aminoacylation ribozyme variant] | 0.394 | 0.822 | 0.734 | 1.21 | 0.836 | 0.949
28 | ACGUUUGGUAAUAGUCGCAAG [Fam3.1 aminoacylation ribozyme variant] | 2.95 | 1.75 | 1.54 | 1.55 | 2.1 | 2.45
29 | AUUACCGUGGUCAUCGAGUGU [Fam2.1 aminoacylation ribozyme variant] | 12.9 | 1.89 | 3.17 | 2.46 | 3.51 | 4.27
30 | AUGCACCUAGGUCAUCGUGUG [Fam2.2 aminoacylation ribozyme variant] | 4.56 | 1.04 | 1.18 | 1.04 | 0.934 | 0.926
31 | AUUACCCUGGUGCUCGAGUGA [Fam2.1 aminoacylation ribozyme variant] | 25 | 2.14 | 3.93 | 2.38 | 4.67 | 5.2
32 | AAGUUUGCUAAUAGCAGCAAG [Fam3.1 aminoacylation ribozyme variant] | 1.12 | 0.793 | 0.683 | 0.851 | 0.646 | 0.754
33 | AUGUCCCUGGUCAUCGAGUGA [Fam2.1 aminoacylation ribozyme variant] | 246 | 15.1 | 44.2 | 17.2 | 40.9 | 41.4
34 | CUACUUCAAACAAUCGAUUUG [Fam1A.1 aminoacylation ribozyme variant] | 1.26 | 0.717 | 0.63 | 0.657 | 0.482 | 0.752
35 | AUUCAUCUCGGUCAUCGGGUG [Fam2.2 aminoacylation ribozyme variant] | 49.8 | 4.65 | 6.97 | 4.55 | 9.9 | 6.85
36 | UUACUUCAAACAAUCGGACUG [Fam1A.1 aminoacylation ribozyme variant] | 7.94 | 1.08 | 1.26 | 0.854 | 0.969 | 4.92
37 | AUCCACCUAGUUCAUCGGGUG [Fam2.2 aminoacylation ribozyme variant] | 24.1 | 2.9 | 3.53 | 3.24 | 4.83 | 4.63
38 | AAGUUUGCUAAUGGGCGCAAG [Fam3.1 aminoacylation ribozyme variant] | 0.784 | 0.937 | 0.695 | 0.874 | 1.08 | 1.5
39 | AUUCACCUUGGUCAUCGGGUA [Fam2.2 aminoacylation ribozyme variant] | 5.21 | 2.5 | 3.09 | 2.98 | 2.64 | 2.75
40 | CCACACUUAAAGCAUUCGGUC [Fam1B.1 aminoacylation ribozyme variant] | 1.03 | 1.63 | 1.17 | 1.58 | 1.29 | 1.15
41 | AUUCACAUAGGUCAUCGGAUG [Fam2.2 aminoacylation ribozyme variant] | 0.549 | 0.903 | 0.698 | 0.857 | 0.649 | 0.403
42 | CUAGUUCAAACAAUCCGUCUG [Fam1A.1 aminoacylation ribozyme variant] | 0.796 | 0.861 | 0.885 | 0.895 | 0.89 | 0.713
43 | AAUGACCUAGGUCAUCGGGUG [Fam2.2 aminoacylation ribozyme variant] | 26.1 | 3.66 | 4.56 | 3.56 | 4.85 | 5.22
44 | AUUACCCUGGCCCUCGAGUGA [Fam2.1 aminoacylation ribozyme variant] | 24.1 | 2.5 | 4.04 | 3.42 | 4.5 | 3.6
45 | AUUACUCUGGUUAUCGAGUGA [Fam2.1 aminoacylation ribozyme variant] | 51.3 | 4.17 | 8.17 | 4.2 | 8.76 | 10.5
46 | CUGCAUCAAACAAUCGGUCUG [Fam1A.1 aminoacylation ribozyme variant] | 10.1 | 1.08 | 1.13 | 1.05 | 1.18 | 7.51
47 | AUUACUCUGGUCAUCGAAUGA [Fam2.1 aminoacylation ribozyme variant] | 0.918 | 1.19 | 1.45 | 1.09 | 1.3 | 0.832
48 | AUUUACCUAGGUUAUCGGGUG [Fam2.2 aminoacylation ribozyme variant] | 23.2 | 2.29 | 3.44 | 2.4 | 3.48 | 3.72
49 | AAGUUUGCAAAUAGUCUCAAG [Fam3.1 aminoacylation ribozyme variant] | 0.972 | 0.987 | 1.12 | 0.772 | 0.747 | 0.81
50 | AUUGCCCUGGUCAGCGAGUGA [Fam2.1 aminoacylation ribozyme variant] | 36.7 | 3.29 | 5.91 | 3.76 | 5.65 | 6.28
51 | AUUACCGCGGUCAUCGAGUGA [Fam2.1 aminoacylation ribozyme variant] | 36.1 | 3.36 | 5.86 | 3.11 | 6.47 | 7.16
